In US20250090663A1:
pKd: −log10 of the molar value.

Columns and labels:
Human GPC3.hFc = assay: SPR (Carterra)
Cyno GPC3.hFc = assay: SPR (Carterra)

With HGC33 scFv the pKd (Human GPC3.hFc) was 8.58 and the pKd (Cyno GPC3.hFc) was 8.61.
